The record followed here is US20200318066A1.

The target in experiment [1] is H-2Kb (MHC-I) presenting the ovalbumin epitope SIINFEKL (SEQ ID NO: 54) (mouse). The experiment is described as follows: flow cytometry, 25-D1.16 staining of monocytes in OVA-loaded splenocytes against SQZ only, 2 and 4 h after SQZ.
Experiment [2] shares this target. Kind of experiment: flow cytometry, 25-D1.16 staining of T, B and NK cells in OVA-loaded splenocytes against SQZ only, 2 and 4 h after SQZ.

Take 25-D1.16 antibody: the increase in fluorescence intensity is > 10% in experiment [1] and > 40% in experiment [2].
